The source of these data is patent publication US20230407373A1 (priority 2020, published 2023).

Read-outs that look alike come from different tables or passages of the source.

The subject of the experiment is HCoV-OC43 gRNA and sgRNA. The class given is binding. Conditions: for target (unweighted spectral count, OC43 Probe II capture): tested against no-probe control, FDR<10%; for target (unweighted spectral count, OC43 Probe II) / background (unweighted spectral count, no-probe control): type n_48_v, 48 hpi; for target (unweighted spectral count, OC43 Probe II): OC43 Probe II capture on infected cells; for background (unweighted spectral count, no-probe control): no-probe control on infected cells.

B1: HNRNPA261 (protein, UniProt P22626 1-353, looked up)
Heterogeneous nuclear …: MEKTLETVPLERKKREKEQFRKLFIGGLSFETTEESLRNYYEQWGKLTDCVVMRDPASKRSRGFGFVTFSSMAEVDAAMAARPHSIDGRVVEPKRAVAREESGKPGAHVTVKKLFVGGIKEDTEEHHLRDYFEEYGKIDTIEIITDRQSGKKRGFGFVTFDDHDPVDKIVLQKYHTINGHNAEVRKALSRQEMQEVQSSRSGRGGNFGFGDSRGGGGNFGPGPGSNFRGGSDGYGSGRGFGDGYNGYGGGPGGGNFGGSPGYGGGRGGYGGGGPGYGNQGGGYGGGYDNYGGGNYGSGNYNDFGNYNQQPSNYGPMKSGNFGGSRNMGGPYGGGNYGPGGSGGSGGYGGRSRY
B1: the “target (unweighted spectral count, OC43 Probe II capture)” value (36 hpi, type n_36_v) stood at 70.

B2: PATL1 (protein, UniProt Q86TB9 1-770, looked up)
Protein PAT1 homolog 1: MFRYESLEDCPLDEDEDAFQGLGEEDEEIDQFNDDTFGSGAVDDDWQEAHERLAELEEKLPVAVNEQTGNGERDEMDLLGDHEENLAERLSKMVIENELEDPAIMRAVQTRPVLQPQPGSLNSSIWDGSEVLRRIRGPLLAQEMPTVSVLEYALPQRPPQGPEDDRDLSERALPRRSTSPIIGSPPVRAVPIGTPPKQMAVPSFTQQILCPKPVHVRPPMPPRYPAPYGERMSPNQLCSVPNSSLLGHPFPPSVPPVLSPLQRAQLLGGAQLQPGRMSPSQFARVPGFVGSPLAAMNPKLLQGRVGQMLPPAPGFRAFFSAPPSATPPPQQHPPGPGPHLQNLRSQAPMFRPDTTHLHPQHRRLLHQRQQQNRSQHRNLNGAGDRGSHRSSHQDHLRKDPYANLMLQREKDWVSKIQMMQLQSTDPYLDDFYYQNYFEKLEKLSAAEEIQGDGPKKERTKLITPQVAKLEHAYKPVQFEGSLGKLTVSSVNNPRKMIDAVVTSRSEDDETKEKQVRDKRRKTLVIIEKTYSLLLDVEDYERRYLLSLEEERPALMDDRKHKICSMYDNLRGKLPGQERPSDDHFVQIMCIRKGKRMVARILPFLSTEQAADILMTTARNLPFLIKKDAQDEVLPCLLSPFSLLLYHLPSVSITSLLRQLMNLPQSAATPALSNPHLTAVLQNKFGLSLLLILLSRGEDLQSSDPATESTQNNQWTEVMFMATRELLRIPQAALAKPISIPTNLVSLFSRYVDRQKLNLLETKLQLVQGIR
For the molecule B2, the “target (unweighted spectral count, OC43 Probe II capture)” value (36 hpi, type n_36_v) came to 6.

B3: BAZ1B (protein, UniProt Q9UIG0 1-1483, looked up)
Tyrosine-protein kinase BAZ1B: MAPLLGRKPFPLVKPLPGEEPLFTIPHTQEAFRTREEYEARLERYSERIWTCKSTGSSQLTHKEAWEEEQEVAELLKEEFPAWYEKLVLEMVHHNTASLEKLVDTAWLEIMTKYAVGEECDFEVGKEKMLKVKIVKIHPLEKVDEEATEKKSDGACDSPSSDKENSSQIAQDHQKKETVVKEDEGRRESINDRARRSPRKLPTSLKKGERKWAPPKFLPHKYDVKLQNEDKIISNVPADSLIRTERPPNKEIVRYFIRHNALRAGTGENAPWVVEDELVKKYSLPSKFSDFLLDPYKYMTLNPSTKRKNTGSPDRKPSKKSKTDNSSLSSPLNPKLWCHVHLKKSLSGSPLKVKNSKNSKSPEEHLEEMMKMMSPNKLHTNFHIPKKGPPAKKPGKHSDKPLKAKGRSKGILNGQKSTGNSKSPKKGLKTPKTKMKQMTLLDMAKGTQKMTRAPRNSGGTPRTSSKPHKHLPPAALHLIAYYKENKDREDKRSALSCVISKTARLLSSEDRARLPEELRSLVQKRYELLEHKKRWASMSEEQRKEYLKKKREELKKKLKEKAKERREKEMLERLEKQKRYEDQELTGKNLPAFRLVDTPEGLPNTLFGDVAMVVEFLSCYSGLLLPDAQYPITAVSLMEALSADKGGFLYLNRVLVILLQTLLQDEIAEDYGELGMKLSEIPLTLHSVSELVRLCLRRSDVQEESEGSDTDDNKDSAAFEDNEVQDEFLEKLETSEFFELTSEEKLQILTALCHRILMTYSVQDHMETRQQMSAELWKERLAVLKEENDKKRAEKQKRKEMEAKNKENGKVENGLGKTDRKKEIVKFEPQVDTEAEDMISAVKSRRLLAIQAKKEREIQEREMKVKLERQAEEERIRKHKAAAEKAFQEGIAKAKLVMRRTPIGTDRNHNRYWLFSDEVPGLFIEKGWVHDSIDYRFNHHCKDHTVSGDEDYCPRSKKANLGKNASMNTQHGTATEVAVETTTPKQGQNLWFLCDSQKELDELLNCLHPQGIRESQLKERLEKRYQDIIHSIHLARKPNLGLKSCDGNQELLNFLRSDLIEVATRLQKGGLGYVEETSEFEARVISLEKLKDFGECVIALQASVIKKFLQGFMAPKQKRRKLQSEDSAKTEEVDEEKKMVEEAKVASALEKWKTAIREAQTFSRMHVLLGMLDACIKWDMSAENARCKVCRKKGEDDKLILCDECNKAFHLFCLRPALYEVPDGEWQCPACQPATARRNSRGRNYTEESASEDSEDDESDEEEEEEEEEEEEEDYEVAGLRLRPRKTIRGKHSVIPPAARSGRRPGKKPHSTRRSQPKAPPVDDAEVDELVLQTKRSSRRQSLELQKCEEILHKIVKYRFSWPFREPVTRDEAEDYYDVITHPMDFQTVQNKCSCGSYRSVQEFLTDMKQVFTNAEVYNCRGSHVLSCMVKTEQCLVALLHKHLPGHPYVRRKRKKFPDRLAEDEGDSEPEAVGQSRGRRQKK
Consider B3, for which the “target (unweighted spectral count, OC43 Probe II capture)” value (24 hpi, type n_24_v) was 4.

B4: NHP2 (protein, UniProt Q9NX24 1-153, looked up)
H/ACA ribonucleoprotein …: MTKIKADPDGPEAQAEACSGERTYQELLVNQNPIAQPLASRRLTRKLYKCIKKAVKQKQIRRGVKEVQKFVNKGEKGIMVLAGDTLPIEVYCHLPVMCEDRNLPYVYIPSKTDLGAAAGSKRPTCVIMVKPHEEYQEAYDECLEEVQSLPLPL
Regarding B4, the “target (unweighted spectral count, OC43 Probe II)” value is on record as 6 and the “background (unweighted spectral count, no-probe control)” value turned out to be 1. The “target (unweighted spectral count, OC43 Probe II capture)” value (36 hpi, type n_36_v) amounted to 6.

B5: DHX8 (protein, UniProt Q14562 1-1220, looked up)
ATP-dependent RNA helicase …: MAVAVAMAGALIGSEPGPAEELAKLEYLSLVSKVCTELDNHLGINDKDLAEFVISLAEKNTTFDTFKASLVKNGAEFTDSLISNLLRLIQTMRPPAKPSTSKDPVVKPKTEKEKLKELFPVLCQPDNPSVRTMLDEDDVKVAVDVLKELEALMPSAAGQEKQRDAEHRDRTKKKKRSRSRDRNRDRDRDRERNRDRDHKRRHRSRSRSRSRTRERNKVKSRYRSRSRSQSPPKDRKDRDKYGERNLDRWRDKHVDRPPPEEPTIGDIYNGKVTSIMQFGCFVQLEGLRKRWEGLVHISELRREGRVANVADVVSKGQRVKVKVLSFTGTKTSLSMKDVDQETGEDLNPNRRRNLVGETNEETSMRNPDRPTHLSLVSAPEVEDDSLERKRLTRISDPEKWEIKQMIAANVLSKEEFPDFDEETGILPKVDDEEDEDLEIELVEEEPPFLRGHTKQSMDMSPIKIVKNPDGSLSQAAMMQSALAKERRELKQAQREAEMDSIPMGLNKHWVDPLPDAEGRQIAANMRGIGMMPNDIPEWKKHAFGGNKASYGKKTQMSILEQRESLPIYKLKEQLVQAVHDNQILIVIGETGSGKTTQITQYLAEAGYTSRGKIGCTQPRRVAAMSVAKRVSEEFGCCLGQEVGYTIRFEDCTSPETVIKYMTDGMLLRECLIDPDLTQYAIIMLDEAHERTIHTDVLFGLLKKTVQKRQDMKLIVTSATLDAVKFSQYFYEAPIFTIPGRTYPVEILYTKEPETDYLDASLITVMQIHLTEPPGDILVFLTGQEEIDTACEILYERMKSLGPDVPELIILPVYSALPSEMQTRIFDPAPPGSRKVVIATNIAETSLTIDGIYYVVDPGFVKQKVYNSKTGIDQLVVTPISQAQAKQRAGRAGRTGPGKCYRLYTERAYRDEMLTTNVPEIQRTNLASTVLSLKAMGINDLLSFDFMDAPPMETLITAMEQLYTLGALDDEGLLTRLGRRMAEFPLEPMLCKMLIMSVHLGCSEEMLTIVSMLSVQNVFYRPKDKQALADQKKAKFHQTEGDHLTLLAVYNSWKNNKFSNPWCYENFIQARSLRRAQDIRKQMLGIMDRHKLDVVSCGKSTVRVQKAICSGFFRNAAKKDPQEGYRTLIDQQVVYIHPSSALFNRQPEWVVYHELVLTTKEYMREVTTIDPRWLVEFAPAFFKVSDPTKLSKQKKQQRLEPLYNRYEEPNAWRISRAFRRR
On to B5, for which the “target (unweighted spectral count, OC43 Probe II capture)” value (36 hpi, type n_36_v) stood at 27.

B6: TRIM28 (protein, UniProt Q13263 2-835, looked up)
Transcription intermediary …: AASAAAASAAAASAASGSPGPGEGSAGGEKRSTAPSAAASASASAAASSPAGGGAEALELLEHCGVCRERLRPEREPRLLPCLHSACSACLGPAAPAAANSSGDGGAAGDGTVVDCPVCKQQCFSKDIVENYFMRDSGSKAATDAQDANQCCTSCEDNAPATSYCVECSEPLCETCVEAHQRVKYTKDHTVRSTGPAKSRDGERTVYCNVHKHEPLVLFCESCDTLTCRDCQLNAHKDHQYQFLEDAVRNQRKLLASLVKRLGDKHATLQKSTKEVRSSIRQVSDVQKRVQVDVKMAILQIMKELNKRGRVLVNDAQKVTEGQQERLERQHWTMTKIQKHQEHILRFASWALESDNNTALLLSKKLIYFQLHRALKMIVDPVEPHGEMKFQWDLNAWTKSAEAFGKIVAERPGTNSTGPAPMAPPRAPGPLSKQGSGSSQPMEVQEGYGFGSGDDPYSSAEPHVSGVKRSRSGEGEVSGLMRKVPRVSLERLDLDLTADSQPPVFKVFPGSTTEDYNLIVIERGAAAAATGQPGTAPAGTPGAPPLAGMAIVKEEETEAAIGAPPTATEGPETKPVLMALAEGPGAEGPRLASPSGSTSSGLEVVAPEGTSAPGGGPGTLDDSATICRVCQKPGDLVMCNQCEFCFHLDCHLPALQDVPGEEWSCSLCHVLPDLKEEDGSLSLDGADSTGVVAKLSPANQRKCERVLLALFCHEPCRPLHQLATDSTFSLDQPGGTLDLTLIRARLQEKLSPPYSSPQEFAQDVGRMFKQFNKLTEDKADVQSIIGLQRFFETRMNEAFGDTKFSAVLVEPPPMSLPGAGLSSQELSGGPGDGP
With B6, the “target (unweighted spectral count, OC43 Probe II)” value amounted to 6 and the “background (unweighted spectral count, no-probe control)” value is given as 1. In addition, under “36 hpi, type n_36_v”, the “target (unweighted spectral count, OC43 Probe II capture)” value was determined as 13.
